From EP0480381A1 come the findings set out here.

The target of assay [1] is rat endothelin receptor (rat). The assay is described as follows: cell-based or functional assay.
Assay [2] concerns the target rat endothelin receptor (rat). The assay is described as follows: displacement of [125I-Tyr13]endothelin-1 by unlabelled peptide on COS-7 cells transfected with prETR-7. (In general: Loss of bound radioactivity is the signal in a displacement assay; it reports binding, not function.)

In the case of “endothelin-2 (from UniProt P20800 49-69) (peptide)”, the increase of calcium concentration in cytoplasm (fura-2), EC50 in assay [1] came to 0.02 nM. In assay [2], this substance showed a binding affinity of 2 nM.
